Test results reported in US20220049019A1.

Assays:
FcγRIIIa = FcγRIIIa (UniProt P08637); assay: competitive TR-FRET
FcγRIIa = FcγRIIa (UniProt P12318); assay: competitive TR-FRET
FcγRIIb receptor [1] = molecular target: FcγRIIb receptor (UniProt P31994); assay: competitive TR-FRET
FcγRIIb receptor [2] = molecular target: FcγRIIb receptor (UniProt P31994); assay: cell based competitive TR-FRET (CisBio); displacement of a fluorescently labeled antibody from the cell surface receptor

EC50 (FcγRIIIa): 26.7 nM
EC50 (FcγRIIa): 0.126 nM
EC50 (FcγRIIb receptor [1]): 0.0165 nM
fold increase in binding against the Construct 4 (SIF3) control (FcγRIIb receptor [2]): > 300 fold
Substance: Construct 4-FcγRIIb+ mutant (from UniProt P01857 27-328; P0DOX5 223-448)
